The results in this text go back to publication PMC9718832, “An NKX-COUP-TFII morphogenetic code directs mucosal endothelial addressin expression” (Nature Communications, 2022).

Data set [1] concerns the target NKX2-5;COUP-TFII (mouse;mouse, UniProt P42582;P43135 1-318;1-414, |). The data set is described as follows: EMSA; COUP-TFII tag not stated; EMSA: 20 mM Tris pH 8.0, 10 mM KCl, 1 mM DTT, 20% glycerol, 12.5 ng poly dI/C, 6.25 pmol random ss oligo, BSA, 1-2 pmol probe, 4 C. The note with it: protein: recombinant;recombinant, tags: His, T7 (pET21A);His, copies: 1;1, blunt. Background: Mobility shift assays separate free from complexed probe on a gel.

The target of data set [2] is T1, NKX2-3 (mouse, UniProt P97334 1-362). The data set is described as follows: EMSA; EMSA: 20 mM Tris pH 8.0, 10 mM KCl, 1 mM DTT, 20% glycerol, 12.5 ng poly dI/C, 6.25 pmol random ss oligo, BSA, 1-2 pmol probe, 4 C. To be noted: protein: recombinant; tags: His, T7 (pET21A); blunt.
Data set [3] addresses T2, COUP-TFII (mouse, UniProt P43135 1-414).
T2 sequence: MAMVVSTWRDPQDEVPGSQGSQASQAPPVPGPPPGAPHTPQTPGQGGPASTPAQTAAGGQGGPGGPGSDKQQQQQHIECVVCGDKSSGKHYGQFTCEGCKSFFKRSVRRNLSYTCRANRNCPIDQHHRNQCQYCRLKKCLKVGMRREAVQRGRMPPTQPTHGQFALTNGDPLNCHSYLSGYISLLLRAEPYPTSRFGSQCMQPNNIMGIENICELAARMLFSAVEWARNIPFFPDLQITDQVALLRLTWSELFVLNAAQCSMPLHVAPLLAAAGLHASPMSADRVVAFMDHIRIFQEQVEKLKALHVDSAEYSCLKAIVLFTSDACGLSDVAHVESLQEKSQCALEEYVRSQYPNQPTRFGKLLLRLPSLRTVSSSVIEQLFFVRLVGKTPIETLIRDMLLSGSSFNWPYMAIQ
The description is as above. To be noted: protein: recombinant; tags: His, T7 (pET21A); chain copies: 2; blunt.

Data set [4] has as its target T3, NKX2-3;COUP-TFII (mouse;mouse, UniProt P97334;P43135 1-362;1-414, |). The data set is described as follows: EMSA; supershift with anti-NKX2-3; EMSA: 20 mM Tris pH 8.0, 10 mM KCl, 1 mM DTT, 20% glycerol, 12.5 ng poly dI/C, 6.25 pmol random ss oligo, BSA, 1-2 pmol probe, 4 C. To be noted: protein: recombinant;recombinant, tags: His, T7 (pET21A);His, copies: 1;1, blunt.

Data set [5] concerns the target T3, NKX2-3;COUP-TFII. The data set is described as follows: EMSA; band stronger than on WT CE; supershift with anti-NKX2-3; EMSA: 20 mM Tris pH 8.0, 10 mM KCl, 1 mM DTT, 20% glycerol, 12.5 ng poly dI/C, 6.25 pmol random ss oligo, BSA, 1-2 pmol probe, 4 C. To be noted: protein: recombinant;recombinant, tags: His, T7 (pET21A);His, copies: 1;1, blunt.
Data set [6] deals with NKX2-3;COUP-TFII-GST (mouse;mouse, UniProt P97334;P43135 1-362;1-414, |). The data set is described as follows: EMSA; EMSA: 20 mM Tris pH 8.0, 10 mM KCl, 1 mM DTT, 20% glycerol, 12.5 ng poly dI/C, 6.25 pmol random ss oligo, BSA, 1-2 pmol probe, 4 C. The note with it: protein: recombinant;recombinant; tags: His, T7 (pET21A);GST (pGEX2TK); copies: 1;1; label: labeled; blunt.
For data set [7], the target named is T1, NKX2-3. The data set is described as follows: EMSA; inhibited by cold WT probe; EMSA: 20 mM Tris pH 8.0, 10 mM KCl, 1 mM DTT, 20% glycerol, 12.5 ng poly dI/C, 6.25 pmol random ss oligo, BSA, 1-2 pmol probe, 4 C. The note with it: protein: recombinant; tags: His, T7 (pET21A); label: labeled; blunt.
The target in data set [8] is T4, COUP-TFII-GST (mouse, UniProt P43135 1-414).
T4 sequence: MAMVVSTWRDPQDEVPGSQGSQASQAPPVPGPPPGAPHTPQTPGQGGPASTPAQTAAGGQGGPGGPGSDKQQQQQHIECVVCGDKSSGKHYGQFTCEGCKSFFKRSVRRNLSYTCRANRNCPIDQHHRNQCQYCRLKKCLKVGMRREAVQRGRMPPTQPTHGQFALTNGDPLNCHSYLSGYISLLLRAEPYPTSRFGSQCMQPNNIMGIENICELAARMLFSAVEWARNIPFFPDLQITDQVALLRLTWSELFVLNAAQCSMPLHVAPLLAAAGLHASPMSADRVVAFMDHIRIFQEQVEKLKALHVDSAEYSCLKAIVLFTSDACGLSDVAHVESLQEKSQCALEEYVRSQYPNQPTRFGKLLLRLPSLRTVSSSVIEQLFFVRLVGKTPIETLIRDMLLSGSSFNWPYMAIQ
The description is as above. The note with it: protein: recombinant; tags: GST (pGEX2TK); chain copies: 2; label: labeled; blunt.

Data set [9] addresses T5, GST-tagged COUP-TFII (mouse, UniProt P43135 1-414).
T5 construct: COUP transcription factor 2 (COUP-TFII, Nr2f2); Nr2f2 cDNA cloned into pGEX2TK; also called COUP-TFII-GST; source: E. coli BL21, purified
T5 sequence (looked up): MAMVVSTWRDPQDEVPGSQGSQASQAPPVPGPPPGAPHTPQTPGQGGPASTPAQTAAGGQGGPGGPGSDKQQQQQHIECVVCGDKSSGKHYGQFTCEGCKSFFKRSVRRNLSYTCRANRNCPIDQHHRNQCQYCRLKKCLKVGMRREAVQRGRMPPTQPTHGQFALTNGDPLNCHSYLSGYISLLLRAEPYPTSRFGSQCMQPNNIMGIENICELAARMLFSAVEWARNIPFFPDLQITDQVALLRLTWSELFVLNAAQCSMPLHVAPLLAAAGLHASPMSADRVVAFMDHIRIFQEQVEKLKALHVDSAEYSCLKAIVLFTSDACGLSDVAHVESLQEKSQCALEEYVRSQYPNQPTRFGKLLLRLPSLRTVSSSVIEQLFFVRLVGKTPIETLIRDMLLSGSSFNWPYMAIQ
The data set is described as follows: native gel or EMSA; NKX2-3 and COUP-TFII-GST co-incubated with labelled St6gal1 NCCE probe; complex seen on DNA. To be noted: both partners purified.

Data set [10] addresses T6, COUP-TFII (recombinant, His- and T7-tagged) (mouse, UniProt P43135 1-414).
T6 construct: COUP transcription factor 2 (COUP-TFII, Nr2f2), mouse; cDNA PCR-amplified from mouse cDNA as BamHI-EcoRI fragment and cloned into pET21-A; also called Nr2f2; NR2F2; source: E. coli BL21, purified
T6 sequence (looked up): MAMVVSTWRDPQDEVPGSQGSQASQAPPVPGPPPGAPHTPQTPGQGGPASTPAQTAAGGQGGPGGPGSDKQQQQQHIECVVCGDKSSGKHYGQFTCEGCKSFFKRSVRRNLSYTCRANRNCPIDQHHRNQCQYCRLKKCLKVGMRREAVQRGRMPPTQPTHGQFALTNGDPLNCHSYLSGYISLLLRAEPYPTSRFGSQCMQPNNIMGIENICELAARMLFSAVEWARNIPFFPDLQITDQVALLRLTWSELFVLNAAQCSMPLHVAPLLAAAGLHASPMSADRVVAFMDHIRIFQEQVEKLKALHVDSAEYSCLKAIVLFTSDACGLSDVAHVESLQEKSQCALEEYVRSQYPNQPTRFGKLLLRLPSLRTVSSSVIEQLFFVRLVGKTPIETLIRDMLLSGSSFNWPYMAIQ
The data set is described as follows: native gel or EMSA; recombinant proteins co-incubated with labelled Madcam1 CE probes (native CE, CE_ΔC_A, CE_ΔN_ΔC_A); 4 °C, 20% glycerol, 20 mM Tris pH 8.0, 10 mM KCl, 1 mM DTT, poly dI/C, BSA; 6% gel; supershift with anti-NKX2-3; complex seen on DNA. To be noted: both partners purified.

Data set [11] deals with T3, NKX2-3;COUP-TFII. The data set is described as follows: EMSA; EMSA: 20 mM Tris pH 8.0, 10 mM KCl, 1 mM DTT, 20% glycerol, 12.5 ng poly dI/C, 6.25 pmol random ss oligo, BSA, 1-2 pmol probe, 4 C. The note with it: protein: recombinant;recombinant; tags: His, T7 (pET21A);His, T7 (pET21A); copies: 1;1; blunt.
In data set [12] the target is T1, NKX2-3. The data set is described as follows: EMSA; supershift; HEY1 dose-dependently inhibits (Fig S1B); EMSA: 20 mM Tris pH 8.0, 10 mM KCl, 1 mM DTT, 20% glycerol, 12.5 ng poly dI/C, 6.25 pmol random ss oligo, BSA, 1-2 pmol probe, 4 C. To be noted: protein: recombinant; tags: His, T7 (pET21A); blunt.
Data set [13] has as its target T7, HEY1 (mouse, UniProt Q9WV93 1-299).
T7 sequence: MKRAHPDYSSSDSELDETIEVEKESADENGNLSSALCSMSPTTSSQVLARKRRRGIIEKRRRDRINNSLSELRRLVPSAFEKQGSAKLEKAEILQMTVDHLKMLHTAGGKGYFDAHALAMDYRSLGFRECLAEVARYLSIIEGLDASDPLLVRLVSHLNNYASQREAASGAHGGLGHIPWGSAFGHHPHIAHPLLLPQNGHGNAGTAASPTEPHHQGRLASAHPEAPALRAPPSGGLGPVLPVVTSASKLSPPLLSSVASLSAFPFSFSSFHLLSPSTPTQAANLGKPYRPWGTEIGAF
The data set is described as follows: EMSA; supershift with anti-HEY1 (HRT1); EMSA: 20 mM Tris pH 8.0, 10 mM KCl, 1 mM DTT, 20% glycerol, 12.5 ng poly dI/C, 6.25 pmol random ss oligo, BSA, 1-2 pmol probe, 4 C. The note with it: protein: recombinant; tags: His, T7 (pET21A); chain copies: 2; blunt.

The target in data set [14] is T2, COUP-TFII. The data set is described as follows: EMSA; supershift; EMSA: 20 mM Tris pH 8.0, 10 mM KCl, 1 mM DTT, 20% glycerol, 12.5 ng poly dI/C, 6.25 pmol random ss oligo, BSA, 1-2 pmol probe, 4 C. To be noted: protein: recombinant; tags: His, T7 (pET21A); chain copies: 2; blunt.
Data set [15] deals with T7, HEY1. The data set is described as follows: EMSA; EMSA: 20 mM Tris pH 8.0, 10 mM KCl, 1 mM DTT, 20% glycerol, 12.5 ng poly dI/C, 6.25 pmol random ss oligo, BSA, 1-2 pmol probe, 4 C. To be noted: protein: recombinant; tags: His, T7 (pET21A); chain copies: 2; blunt.

Chain of NKX2-5;COUP-TFII (P42582 whole entry, one chain of several): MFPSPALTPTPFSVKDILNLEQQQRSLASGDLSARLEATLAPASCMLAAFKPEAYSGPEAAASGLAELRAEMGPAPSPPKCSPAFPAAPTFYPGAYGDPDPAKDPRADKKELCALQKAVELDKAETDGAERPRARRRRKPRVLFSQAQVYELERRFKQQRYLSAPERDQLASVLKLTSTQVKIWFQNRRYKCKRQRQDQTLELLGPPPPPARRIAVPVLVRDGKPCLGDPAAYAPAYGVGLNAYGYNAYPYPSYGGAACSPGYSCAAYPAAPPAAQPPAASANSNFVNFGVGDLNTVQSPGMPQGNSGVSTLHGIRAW

B1: Tbx5 NCCE (dsDNA)
DNA 1: CCGCTGACCCGACCCTTAATAAGGCA
DNA 2: TGCCTTATTAAGGGTCGGGTCAGCGG
As for B1, the binding result in data set [1] is reported as “binds”.

B2: Madcam1 CE_deltaN_deltaC_A (dsDNA)
DNA 1: CCATGGTCTTGAAAAAAAATGGTGACCCACCTCC
DNA 2: GGAGGTGGGTCACCATTTTTTTTCAAGACCATGG
Take B2: the binding result in data set [2] was “no binding”; in data set [3], “binds”; in data set [4], “binds”.

B3: Madcam1 CE_deltaC_A (dsDNA)
DNA 1: CCATGCACTTGAAAAAAAATGGTGACCCACCTCC
DNA 2: GGAGGTGGGTCACCATTTTTTTTCAAGTGCATGG
For B3, in [5], the binding result is on record as “binds”.

B4: St6gal1 CE WT (dsDNA)
DNA 1: GAGGCTGGTCAGAGAAGTGTGAAAAG
DNA 2: CTTTTCACACTTCTCTGACCAGCCTC
Take B4: the binding result in data set [6], in data set [7] and in [8] was “binds” each time.

B5: NKX2-3 (recombinant, His- and T7-tagged) (natural protein, mouse, UniProt P97334 1-362, looked up)
chain: MMLPSPVTSTPFSVKDILNLEQQRHFHGAHLQAELEQHFHSAPCMLATAEGTQFSDAGEEDEEEEGEKLSYLNSLAAAEGHGDSGLCPQSYVHTVLRDACSGPKEQEEEVVSERSQKSCQLKKSLEAAGDCKTSEDGERPKPRSRRKPRVLFSQAQVFELERRFKQQRYLSAPEREHLASSLKLTSTQVKIWFQNRRYKCKRQRQDKSLELGTHAPPPPPRRVAVPVLVRDGKPCVTPSAQTYGSPYGVGAGAYSYNSFPAYGYGNSAAAAAAAAAAAAAAAAYSGSYGCAYPTGGGGGGGGTASAATTAMQPACSATGGGSFVNVSNLGGFGSGGGAQPLHQGAAAGSACTQGTLQGIRAW
notes: Homeobox protein NKX2-3, mouse; cDNA PCR-amplified from mouse cDNA as EcoRI-HindIII fragment and cloned into pET21-A; also called intestinal homeodomain protein NKX2-3; source: E. coli BL21, purified
Take B5: the binding result in data set [9] and in data set [10] was “binds” in each case.

B6: Madcam1 CE WT (dsDNA)
DNA 1: CCATGCACTTGACCCACCATGGTGACCCACCTCC
DNA 2: GGAGGTGGGTCACCATGGTGGGTCAAGTGCATGG
Turning to B6, the binding result in data set [11], in [12], in [13] and in [14] was “binds” in each case.

B7: Madcam1 CE_deltaE/N (m1) (dsDNA)
DNA 1: CCATGGTCTTGACCCACCATGGTGACCCACCTCC
DNA 2: GGAGGTGGGTCACCATGGTGGGTCAAGACCATGG
Turning to B7, the binding result in data set [2] and in data set [15] was “no binding” in each case.

B8: Etv2 NCCE (dsDNA)
DNA 1: CCTGCAACTTGACCCAGGCTGCGACCCCCAGC
DNA 2: GCTGGGGGTCGCAGCCTGGGTCAAGTTGCAGG
B8: the binding result in data set [1] is given as “binds”.
